Assay results taken from publication PMC4148139 (Biochemistry, 2014).

Molecular target: T1, FADD DD (death domain of Fas-associated protein with death domain, residues 93-184), His-tagged (UniProt Q13158 93-184)
T1 sequence (looked up): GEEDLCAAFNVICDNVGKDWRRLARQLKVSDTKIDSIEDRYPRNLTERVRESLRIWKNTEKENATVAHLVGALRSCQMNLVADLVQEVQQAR
Test: SEC-MALS

B1: RIP1 DD (death domain of receptor interaction protein kinase 1, residues 583-664), His-tagged (domain or fragment, UniProt Q13546 583-664, looked up)
chain: TDKHLDPIRENLGKHWKNCARKLGFTQSQIDEIDHDYERDGLKEKVYQMLQKWVMREGIKGATVGKLAQALHQCSRIDLLSS
For B1, the “stoichiometry N” value was ~1 RIP1 DD per FADD DD (5:5).

B2: GST-tagged RIP1 DD (domain or fragment, UniProt Q13546 583-664, looked up)
chain: TDKHLDPIRENLGKHWKNCARKLGFTQSQIDEIDHDYERDGLKEKVYQMLQKWVMREGIKGATVGKLAQALHQCSRIDLLSS
In the case of B2, the “stoichiometry N” value is reported as 1 GST-RIP1 DD per FADD DD (5:5).
